Where “and” joins values, the source holds several entries; their conditions need not be identical. Equal entries are not always repeated.
Biological target: Recombinant TssK (SMA2253), purified from S. marcescens, His6 tag removed (Serratia marcescens Db10)
Experiment: AUC; sedimentation velocity, 4°C, 49000 rev./min, 50 mM Tris/HCl pH 7.5, 250 mM NaCl; Peak 1 at 0.2 to 0.7 mg/ml, Peak 2 at 0.2 and 0.5 mg/ml; c(s) analysis in SEDFIT

Substance: Recombinant TssK (SMA2253), purified from S. marcescens, His6 tag removed (natural protein)
- stoichiometry N: 3 and 6
